Biological target: peptide 91a (human)
Test: ITC

- Kd: 3 µM
- stoichiometry N: ~1
B1: peptide 374a (peptide)
chain: EELARLEREYQDLLNVKMALDIEIATYRKLLEALESR
